Measured values taken from publication PMC12069617.

Columns and labels:
Experiment in all cases: SEC-MALS
[1] = molecular target: PR-B (progesterone receptor isoform B);SRC3 (steroid receptor coactivator 3) (human?;human?, UniProt P06401;Q9Y6Q9 1-933;1-1424, |)
[2] = molecular target: PR-A (progesterone receptor isoform A);SRC3 (steroid receptor coactivator 3) (human?;human?, UniProt P06401;Q9Y6Q9 165-933;1-1424, |)
[3] = molecular target: PR-A (progesterone receptor isoform A);SRC3 (steroid receptor coactivator 3);p300 (human?;human?;human?, UniProt P06401;Q9Y6Q9;Q09472 165-933;1-1424;1-2414, ||)
[4] = molecular target: PR-B (progesterone receptor isoform B) (UniProt P06401 1-933)
[5] = molecular target: PR-B (progesterone receptor isoform B);SRC3 (steroid receptor coactivator 3);p300 (human?;human?;human?, UniProt P06401;Q9Y6Q9;Q09472 1-933;1-1424;1-2414, ||)
[6] = molecular target: PR-A (progesterone receptor isoform A) (UniProt P06401 165-933)

Measured: binding result

Sequence of PR-B (progesterone receptor isoform B) (P06401 whole entry, canonical isoform): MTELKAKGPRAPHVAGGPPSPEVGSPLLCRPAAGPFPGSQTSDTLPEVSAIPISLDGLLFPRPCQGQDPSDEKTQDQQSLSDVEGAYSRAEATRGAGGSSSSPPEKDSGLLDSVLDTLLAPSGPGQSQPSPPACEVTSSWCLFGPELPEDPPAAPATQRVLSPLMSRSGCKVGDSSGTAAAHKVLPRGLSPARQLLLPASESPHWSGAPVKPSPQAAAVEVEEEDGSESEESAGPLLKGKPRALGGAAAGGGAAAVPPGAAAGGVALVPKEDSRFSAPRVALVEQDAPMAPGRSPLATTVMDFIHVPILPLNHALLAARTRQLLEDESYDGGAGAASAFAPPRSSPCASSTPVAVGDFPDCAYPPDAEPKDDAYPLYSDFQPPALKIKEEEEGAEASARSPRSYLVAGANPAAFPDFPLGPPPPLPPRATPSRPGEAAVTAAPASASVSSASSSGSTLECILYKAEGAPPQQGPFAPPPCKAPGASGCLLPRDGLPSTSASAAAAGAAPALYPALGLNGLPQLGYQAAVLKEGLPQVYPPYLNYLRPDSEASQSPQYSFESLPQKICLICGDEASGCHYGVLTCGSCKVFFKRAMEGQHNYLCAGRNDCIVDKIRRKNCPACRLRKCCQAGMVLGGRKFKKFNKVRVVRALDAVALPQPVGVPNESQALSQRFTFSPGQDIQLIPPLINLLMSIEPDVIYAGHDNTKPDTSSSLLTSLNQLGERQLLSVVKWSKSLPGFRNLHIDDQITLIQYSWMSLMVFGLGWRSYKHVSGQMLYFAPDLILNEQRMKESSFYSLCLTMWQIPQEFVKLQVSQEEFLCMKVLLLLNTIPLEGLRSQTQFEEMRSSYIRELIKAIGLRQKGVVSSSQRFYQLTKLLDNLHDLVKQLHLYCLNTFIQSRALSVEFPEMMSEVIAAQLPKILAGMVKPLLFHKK
Sequence of PR-B (progesterone receptor isoform B);SRC3 (steroid receptor coactivator 3);p300 (P06401 whole entry, chain 1 of 3, canonical isoform): as the sequence (P06401 whole entry, canonical isoform) above
Sequence of PR-B (progesterone receptor isoform B);SRC3 (steroid receptor coactivator 3);p300 (Q9Y6Q9 whole entry, chain 2 of 3, canonical isoform): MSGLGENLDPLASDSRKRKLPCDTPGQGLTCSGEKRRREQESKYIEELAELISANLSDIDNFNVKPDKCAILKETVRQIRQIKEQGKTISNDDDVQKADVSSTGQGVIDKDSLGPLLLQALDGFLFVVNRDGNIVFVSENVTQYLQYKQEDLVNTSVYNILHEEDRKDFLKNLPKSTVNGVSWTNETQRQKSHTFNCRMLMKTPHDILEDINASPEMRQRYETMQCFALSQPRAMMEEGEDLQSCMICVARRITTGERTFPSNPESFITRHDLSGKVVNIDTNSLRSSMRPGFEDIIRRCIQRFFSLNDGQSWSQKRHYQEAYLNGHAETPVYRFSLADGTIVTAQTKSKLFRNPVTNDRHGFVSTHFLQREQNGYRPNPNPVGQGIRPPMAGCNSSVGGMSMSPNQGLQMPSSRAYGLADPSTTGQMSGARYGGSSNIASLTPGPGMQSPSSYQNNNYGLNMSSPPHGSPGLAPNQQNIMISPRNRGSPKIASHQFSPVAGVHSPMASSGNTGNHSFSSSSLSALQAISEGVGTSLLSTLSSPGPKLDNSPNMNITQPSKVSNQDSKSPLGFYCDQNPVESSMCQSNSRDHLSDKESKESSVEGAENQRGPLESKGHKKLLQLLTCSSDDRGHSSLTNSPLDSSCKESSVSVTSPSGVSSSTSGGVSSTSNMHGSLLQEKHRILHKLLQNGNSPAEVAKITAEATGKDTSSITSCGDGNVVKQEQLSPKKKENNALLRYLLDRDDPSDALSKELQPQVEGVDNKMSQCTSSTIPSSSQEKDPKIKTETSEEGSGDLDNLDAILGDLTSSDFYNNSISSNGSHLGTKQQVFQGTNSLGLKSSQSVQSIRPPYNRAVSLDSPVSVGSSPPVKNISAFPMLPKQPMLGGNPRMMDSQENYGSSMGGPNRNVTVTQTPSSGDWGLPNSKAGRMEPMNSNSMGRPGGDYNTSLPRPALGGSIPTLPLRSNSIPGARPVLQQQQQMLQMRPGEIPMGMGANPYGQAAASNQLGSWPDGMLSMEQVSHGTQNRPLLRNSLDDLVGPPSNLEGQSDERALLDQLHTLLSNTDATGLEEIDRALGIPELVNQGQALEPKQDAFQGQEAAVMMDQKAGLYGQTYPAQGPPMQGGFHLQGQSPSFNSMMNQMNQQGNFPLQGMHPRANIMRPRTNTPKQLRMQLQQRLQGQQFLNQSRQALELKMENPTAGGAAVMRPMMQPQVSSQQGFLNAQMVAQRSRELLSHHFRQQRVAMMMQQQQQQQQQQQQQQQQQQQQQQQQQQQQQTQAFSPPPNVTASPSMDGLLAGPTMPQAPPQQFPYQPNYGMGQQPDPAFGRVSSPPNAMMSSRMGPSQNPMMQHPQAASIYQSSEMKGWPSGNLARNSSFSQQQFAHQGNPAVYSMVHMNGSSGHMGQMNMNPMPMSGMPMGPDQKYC
Sequence of PR-B (progesterone receptor isoform B);SRC3 (steroid receptor coactivator 3);p300 (Q09472 whole entry, chain 3 of 3, canonical isoform): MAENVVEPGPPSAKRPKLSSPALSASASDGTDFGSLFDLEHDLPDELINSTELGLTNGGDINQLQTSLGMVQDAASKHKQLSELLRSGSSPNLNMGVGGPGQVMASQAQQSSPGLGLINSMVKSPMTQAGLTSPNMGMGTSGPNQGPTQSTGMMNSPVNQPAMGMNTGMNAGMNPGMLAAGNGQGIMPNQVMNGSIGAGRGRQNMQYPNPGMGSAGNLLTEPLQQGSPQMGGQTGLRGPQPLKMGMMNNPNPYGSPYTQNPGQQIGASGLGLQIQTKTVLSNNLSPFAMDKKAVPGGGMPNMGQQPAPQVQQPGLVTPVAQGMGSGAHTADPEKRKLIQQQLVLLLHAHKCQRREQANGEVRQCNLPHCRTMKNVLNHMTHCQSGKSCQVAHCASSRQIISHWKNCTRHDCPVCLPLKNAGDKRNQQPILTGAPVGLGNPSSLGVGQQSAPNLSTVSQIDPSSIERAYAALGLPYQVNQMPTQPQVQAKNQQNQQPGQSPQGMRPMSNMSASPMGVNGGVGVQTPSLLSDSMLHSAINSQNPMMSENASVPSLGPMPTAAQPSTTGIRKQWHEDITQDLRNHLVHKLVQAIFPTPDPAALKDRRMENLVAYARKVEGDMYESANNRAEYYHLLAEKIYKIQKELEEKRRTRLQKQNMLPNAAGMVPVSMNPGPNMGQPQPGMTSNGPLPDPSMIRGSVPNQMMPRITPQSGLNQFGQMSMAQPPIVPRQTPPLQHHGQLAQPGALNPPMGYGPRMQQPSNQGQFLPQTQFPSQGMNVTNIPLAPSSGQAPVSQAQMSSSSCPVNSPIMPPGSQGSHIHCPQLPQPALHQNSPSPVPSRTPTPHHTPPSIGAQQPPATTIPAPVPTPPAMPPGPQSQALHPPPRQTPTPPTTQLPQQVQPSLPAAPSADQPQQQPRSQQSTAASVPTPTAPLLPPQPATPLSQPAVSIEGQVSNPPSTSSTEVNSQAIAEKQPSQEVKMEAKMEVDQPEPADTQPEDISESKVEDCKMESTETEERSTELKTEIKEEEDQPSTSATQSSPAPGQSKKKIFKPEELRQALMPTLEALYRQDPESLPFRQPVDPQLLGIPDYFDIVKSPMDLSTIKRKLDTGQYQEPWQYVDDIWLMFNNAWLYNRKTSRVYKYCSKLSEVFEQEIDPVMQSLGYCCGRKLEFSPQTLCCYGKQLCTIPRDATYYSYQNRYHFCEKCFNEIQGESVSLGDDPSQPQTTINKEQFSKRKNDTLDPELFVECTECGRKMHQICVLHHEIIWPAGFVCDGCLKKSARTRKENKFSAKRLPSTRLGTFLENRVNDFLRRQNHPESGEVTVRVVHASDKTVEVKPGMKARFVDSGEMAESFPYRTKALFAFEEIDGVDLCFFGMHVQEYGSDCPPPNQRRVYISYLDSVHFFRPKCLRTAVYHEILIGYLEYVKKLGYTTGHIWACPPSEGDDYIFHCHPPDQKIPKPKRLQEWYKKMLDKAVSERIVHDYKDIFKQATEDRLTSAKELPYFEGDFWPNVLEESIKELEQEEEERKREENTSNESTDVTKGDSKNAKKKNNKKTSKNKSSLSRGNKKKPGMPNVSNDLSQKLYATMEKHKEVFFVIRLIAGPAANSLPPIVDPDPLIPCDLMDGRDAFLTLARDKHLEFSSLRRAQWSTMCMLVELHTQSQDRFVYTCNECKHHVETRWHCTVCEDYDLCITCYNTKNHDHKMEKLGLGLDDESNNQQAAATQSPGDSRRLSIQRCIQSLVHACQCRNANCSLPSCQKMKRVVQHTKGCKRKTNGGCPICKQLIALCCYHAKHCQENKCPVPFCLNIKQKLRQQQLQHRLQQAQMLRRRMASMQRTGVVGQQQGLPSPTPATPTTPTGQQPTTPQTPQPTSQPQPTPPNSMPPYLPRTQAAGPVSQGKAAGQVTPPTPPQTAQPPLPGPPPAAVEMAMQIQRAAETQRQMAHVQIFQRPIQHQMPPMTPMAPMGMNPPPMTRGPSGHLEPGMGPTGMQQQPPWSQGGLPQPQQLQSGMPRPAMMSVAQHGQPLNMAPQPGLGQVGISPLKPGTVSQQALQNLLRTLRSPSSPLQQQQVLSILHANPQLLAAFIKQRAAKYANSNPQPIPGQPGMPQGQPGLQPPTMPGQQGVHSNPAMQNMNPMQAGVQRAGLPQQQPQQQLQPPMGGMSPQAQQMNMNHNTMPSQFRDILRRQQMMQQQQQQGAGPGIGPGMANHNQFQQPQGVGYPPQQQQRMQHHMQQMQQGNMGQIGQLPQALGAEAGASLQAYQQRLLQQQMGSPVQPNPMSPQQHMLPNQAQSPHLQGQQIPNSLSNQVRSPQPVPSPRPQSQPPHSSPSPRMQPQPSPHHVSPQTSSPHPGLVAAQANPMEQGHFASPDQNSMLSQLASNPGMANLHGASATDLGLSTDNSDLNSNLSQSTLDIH
Sequence of PR-B (progesterone receptor isoform B);SRC3 (steroid receptor coactivator 3) (P06401 whole entry, chain 1 of 2, canonical isoform): as the sequence (P06401 whole entry, canonical isoform) above
Sequence of PR-B (progesterone receptor isoform B);SRC3 (steroid receptor coactivator 3) (Q9Y6Q9 whole entry, chain 2 of 2, canonical isoform): as the sequence (Q9Y6Q9 whole entry, chain 2 of 3, canonical isoform) above

B1: 32-mer PRE (progesterone response element) (dsDNA)
DNA 1: CATCTTTGAGAACAAACTGTTCTTAAAACGAG
DNA 2: CTCGTTTTAAGAACAGTTTGTTCTCAAAGATG
binds: [1] | [2] | [3] | [4] | [5] | [6]
